Measured values taken from the supplement of paper PMC10126150.
± gives the standard deviation of the averaged measurements.

System: ATP
Experiment: switch fluorescence ratio, 500 uM ATP over buffer (Cy3 cluster intensity, sum of 5 cycles each) (fold (ratio)); higher = stronger signal-on switching upon ATP binding; sequences stand for … in TCGTCGGCAGCGTCAGATGTGTATAAGAGACAGTTTTTTTTTTTTTTTTTTTTTTTTT…TC
Details: aptamer strand: ATP DNA aptamer (quencher-CACCTGGGGGAGTATTGCGGAGGAAGG + anchor), 100 nM annealed; ATP concentration: 500 uM
How it was run: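 Switching-strand clusters labelled with Cy3 on a modified Illumina MiSeq flow-cell were annealed to 100 nM quencher-labelled ATP aptamer, imaged in selection buffer, and re-imaged after 15 min with 500 uM ATP at 22 °C. This was done over five cycles with NaOH stripping and re-annealing in between. The fluorescence ratio is summed target-cycle over summed buffer-cycle Cy3 intensity per cluster, averaged per switch-domain sequence, excluding clusters outside 100-1000 RFU.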
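Further: ATP exposure 15 min at 22 °C before imaging.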

GGTTCAGGGG and TGGCGGGGTC are within error of each other in switch fluorescence ratio: 2.26 ± 1.8 for the first, 0.9992 ± 0.0094 for the second.

Compared with GAATGTGACG, ATTATTATGT is lower in switch fluorescence ratio: 1.02 ± 0.013 for the first, 0.978 ± 0.01 for the second.

CTAATGATGG and CTCGGGGTCG are within error of each other in switch fluorescence ratio: 1.01 ± 0.056 for the first, 0.994 ± 0.047 for the second.

AGAAAGGATG and TTAGTACCAT are the same in switch fluorescence ratio: 1.01 ± 0.032 for the first, 1.01 ± 0.028 for the second.

GGCAGTTGCT and TCGATCTTTT are within error of each other in switch fluorescence ratio: 0.9882 ± 0.0056 for the first, 1.24 ± 0.4 for the second.

GGAATCGGCG and TGGGATACGT are within error of each other in switch fluorescence ratio: 0.988 ± 0.017 for the first, 1.55 ± 0.79 for the second.

Going from TTTATCACCT to GACCCAAGGC, the switch fluorescence ratio rises from 1.14 ± 0.021 to 1.194 ± 0.01.

GAGAGGGGAG and TTGCCTGGGG are within error of each other in switch fluorescence ratio: 0.983 ± 0.025 for the first, 1.02 ± 0.013 for the second.

First: TTACAGTTGG
Second: CCGGGGCTTT
The switch fluorescence ratio of the first is lower: 1.03 ± 0.023 for the first, 1.17 ± 0.021 for the second.

First: TGTTTGTTCT
Second: AGCTTTTTTA
The switch fluorescence ratio of the first is lower: 0.976 ± 0.014 for the first, 1.02 ± 0.015 for the second.

First: TGTTATAGTT
Second: CTGGGAAGGG
The switch fluorescence ratio of the first is higher: 1.01 ± 0.055 for the first, 0.9281 ± 0.0061 for the second.

TAGGGGCCTG and TGCCATTGGG are within error of each other in switch fluorescence ratio: 0.9831 ± 0.0098 for the first, 1.08 ± 0.12 for the second.

Compared with AAGGGGATTT, AGGACCAGCA is higher in switch fluorescence ratio: 0.975 ± 0.016 for the first, 1.024 ± 0.0075 for the second.

Compared with GTTTTATGGT, ATTATGAATG is higher in switch fluorescence ratio: 0.968 ± 0.0075 for the first, 0.989 ± 0.0071 for the second.

TCACATTTTC and CGATATGTAG are within error of each other in switch fluorescence ratio: 1.09 ± 0.14 for the first, 1.016 ± 0.0045 for the second.

GGACTGGGGA and AAGTGGTTAG are within error of each other in switch fluorescence ratio: 1.0045 ± 0.00084 for the first, 0.98 ± 0.027 for the second.

Compared with AAGAAATCGG, TCCTTTTATG is lower in switch fluorescence ratio: 1.01 ± 0.018 for the first, 0.98329 ± 2.8e-05 for the second.

Going from GTTATGTGGT to GACTGGGTG, the switch fluorescence ratio rises from 0.975 ± 0.0099 to 1.04 ± 0.014.

Compared with GGTGGGGAGA, TTATAATTTT is lower in switch fluorescence ratio: 1.017 ± 0.0086 for the first, 0.965 ± 0.044 for the second.

First: GGGATAACAG
Second: TTGATACCAG
The switch fluorescence ratio of the first is higher: 1.04 ± 0.011 for the first, 0.982 ± 0.013 for the second.

ATAAGTGATA and CGGGAAGGGG are the same in switch fluorescence ratio: 1.02 ± 0.025 for the first, 1.02 ± 0.03 for the second.

Going from TAACAATTTC to GCTATCCCTG, the switch fluorescence ratio rises from 1.01 ± 0.02 to 1.05 ± 0.018.

Compared with TTATGTCAGG, CTTCACTACG is higher in switch fluorescence ratio: 1.04 ± 0.015 for the first, 1.12 ± 0.043 for the second.

GGGTTTCGAT and TGATCTCTTT are within error of each other in switch fluorescence ratio: 0.984 ± 0.024 for the first, 1.03 ± 0.049 for the second.

AACTGTGTG and TACAGGGACC are within error of each other in switch fluorescence ratio: 0.987 ± 0.043 for the first, 1.022 ± 0.0034 for the second.

TTGAGGGACT and TTTTATTCTT are within error of each other in switch fluorescence ratio: 1.01 ± 0.018 for the first, 0.987 ± 0.016 for the second.

First: CAAAGGTTGG
Second: GGACACGGTA
The switch fluorescence ratio of the first is lower: 1 ± 0.038 for the first, 1.12 ± 0.029 for the second.

GCCTACTGTT and CGGGTGCCGT are within error of each other in switch fluorescence ratio: 0.9855 ± 0.0094 for the first, 1.06 ± 0.15 for the second.

AGGCAAGGGG and CTTGATAAAA are within error of each other in switch fluorescence ratio: 1.04 ± 0.069 for the first, 1.01 ± 0.017 for the second.

TTAGGGGGGT and TTTAGCTTGT are within error of each other in switch fluorescence ratio: 1.05 ± 0.15 for the first, 0.972 ± 0.011 for the second.

Compared with ATGGGGGACA, TTTCCTAGTT is higher in switch fluorescence ratio: 0.981 ± 0.012 for the first, 1.032 ± 0.0028 for the second.

GCTAGATGCG and CGGTAAATGG are within error of each other in switch fluorescence ratio: 0.973 ± 0.03 for the first, 1.02 ± 0.04 for the second.

AGGTGCAGCA and GTGTAAGGGT are within error of each other in switch fluorescence ratio: 1.06 ± 0.15 for the first, 0.981 ± 0.018 for the second.

TTTGCAGCTT and GAGTGCCGGG are within error of each other in switch fluorescence ratio: 1.49 ± 0.87 for the first, 1.03 ± 0.016 for the second.

CGTTTCCTTT and CCGGGGCTGG are within error of each other in switch fluorescence ratio: 0.993 ± 0.024 for the first, 1.04 ± 0.037 for the second.

First: ATTGATGACT
Second: ACTGAAGTTA
The switch fluorescence ratio of the first is higher: 1.04 ± 0.027 for the first, 0.98 ± 0.018 for the second.

TGATGGGGTA and CATATGGCTT are within error of each other in switch fluorescence ratio: 1.04 ± 0.019 for the first, 1.02 ± 0.023 for the second.

Going from TGTTGGCCAG to CCAAGAGTCG, the switch fluorescence ratio rises from 0.9797 ± 0.0075 to 1.08 ± 0.046.

GCGTTTAGTA and TGGGGTTTAT are within error of each other in switch fluorescence ratio: 0.992 ± 0.03 for the first, 1.01 ± 0.02 for the second.

TATTTGGATG and CTGGTCGAAT are within error of each other in switch fluorescence ratio: 1.03 ± 0.069 for the first, 1 ± 0.017 for the second.

TAATCGGCTG and TATTTGTTTT are within error of each other in switch fluorescence ratio: 0.991 ± 0.069 for the first, 0.998 ± 0.039 for the second.

Going from GGAGTTCGGG to ACCGGGGTGT, the switch fluorescence ratio rises from 0.978 ± 0.021 to 1.17 ± 0.14.

First: CCCTTTTTTT
Second: TTTTCCGTAT
The switch fluorescence ratio of the first is lower: 1.07 ± 0.037 for the first, 1.18 ± 0.025 for the second.

TAAAGGAAAT and TCATACCCTG are within error of each other in switch fluorescence ratio: 1.09 ± 0.11 for the first, 1.024 ± 0.0061 for the second.

CAGGAGAGGG and AGTTTCTTAC are within error of each other in switch fluorescence ratio: 1.02 ± 0.029 for the first, 1.01 ± 0.024 for the second.

TTGATTTAGG and TGGTTTTCGG are within error of each other in switch fluorescence ratio: 0.995 ± 0.028 for the first, 0.993 ± 0.041 for the second.

AAGGGAAATT and GTTAATAGAA are within error of each other in switch fluorescence ratio: 0.983 ± 0.025 for the first, 0.984 ± 0.035 for the second.

AAGACAGCGA and AGCACAAAAA are within error of each other in switch fluorescence ratio: 1.41 ± 0.57 for the first, 1.12 ± 0.096 for the second.

First: GTGTCGGATC
Second: GGGTAAGATG
The switch fluorescence ratio of the first is higher: 1.06 ± 0.023 for the first, 0.992 ± 0.016 for the second.

Going from AATCGTGTAT to TTCCGTATTT, the switch fluorescence ratio rises from 0.983 ± 0.035 to 1.15 ± 0.012.
